Laboratory results taken from PMC11257983 (2024).

B1: Flag-CNK^2–549 [Drosophila] / GST-HYP [Drosophila] (parent complex)
chain 1: AYINIAEWTPDQVTDWIKGLDESMKGYLYEFSKQEIGGRALLNIRPYELENLGMLRIGHQEIVLEAVENLRNFHYHLKNDNLQFMALHVATAAKNLHRELARNHAESTKIDTRILHDITRTIATLKPLVGSLERTPFRKQEMYREYCGNVLKCGLELATIAHRDRFALQPVPAIRQSAERLENLANFVIQDISDPMVLQPASLNLVTLKKRESELGFNIESSYNGIHRVTDIKYNSPAHNSGKIEDGDEIVQINYQTVVGWQHRTVLEHLREALPDVVLTVKKRPKHTKMFGQIYMQPYRLPSKKRNMAARWAAQMPSPRAAFLTLDTEQLATGGTGSAVPDPSKSLSSEKREVLTKANPVSSASDSDSSCSDIPTPTDPKLAAREIRLYYPKPRALLQRRNTICGCEYLSLKNSDLVVPSWHERKPGIGSPTNCDPGSPSIRDKSISFGYGLEMAARPTTCIGIAGDTSTDKARRMFHEARKLKQLTEDSQREFLVDRYKPGVSKVVRFDAKEDYVMKNEKFICNVENTILETFEPIPFADEGDEDA
chain 2: MGEETINSTQNKTRTKTTRPKAVYLWTVSDVLKWYRRHCGEYTQYEQLFAQHDITGRALLRITDSSLQRMGVTDNRDREAIWREIVKQRLKTDIMEIRDMERLNIY

Variants of: B1
Assay: GST pull-down, immunoblot quantification; S2 cells; GST-HYP + RRKM co-expressed; anti-Flag (CNK) blot; parent: 1

Row | ratio to parent | Variant
1 | 0.31 | chain 1 AYINIAEWTPDQVTDWIKGLDESMKGYLYEFSKQEIGGRALLNIRPYELENLGMLRIGHQEIVLEAVENLRNFHYHLKNDNLQFMALHVATAAKNLHRELARNHAESTKIDTRILHDITRTIATLKPLVGSLERTPFRKQEMYREYCGNVLKCGLELATIAHRDRFALQPVPAIRQSAERLENLANFVIQDISDPMVLQPASLNLVTLKKRESELGFNIESSYNGIHRVTDIKYNSPAHNSGKIEDGDEIVQINYQTVVGWQHRTVLEHLREALPDVVLTVDKRPKHTKMFGQIYMQPYRLPSKKRNMAARWAAQMPSPRAAFLTLDTEQLATGGTGSAVPDPSKSLSSEKREVLTKANPVSSASDSDSSCSDIPTPTDPKLAAREIRLYYPKPRALLQRRNTICGCEYLSLKNSDLVVPSWHERKPGIGSPTNCDPGSPSIRDKSISFGYGLEMAARPTTCIGIAGDTSTDKARRMFHEARKLKQLTEDSQREFLVDRYKPGVSKVVRFDAKEDYVMKNEKFICNVENTILETFEPIPFADEGDEDA [chain 1 K282D]
2 | 0.73 | chain 1 AYINIAEWTPDQVTDWIKGLDESMKGYLYEFSKQEIGGRALLNIRPYELENLGMLRIGHQEIVLEAVENLRNFHYHLKNRNLQFMALHVATAAKNLHRELARNHAESTKIDTRILHDITRTIATLKPLVGSLERTPFRKQEMYREYCGNVLKCGLELATIAHRDRFALQPVPAIRQSAERLENLANFVIQDISDPMVLQPASLNLVTLKKRESELGFNIESSYNGIHRVTDIKYNSPAHNSGKIEDGDEIVQINYQTVVGWQHRTVLEHLREALPDVVLTVDKRPKHTKMFGQIYMQPYRLPSKKRNMAARWAAQMPSPRAAFLTLDTEQLATGGTGSAVPDPSKSLSSEKREVLTKANPVSSASDSDSSCSDIPTPTDPKLAAREIRLYYPKPRALLQRRNTICGCEYLSLKNSDLVVPSWHERKPGIGSPTNCDPGSPSIRDKSISFGYGLEMAARPTTCIGIAGDTSTDKARRMFHEARKLKQLTEDSQREFLVDRYKPGVSKVVRFDAKEDYVMKNEKFICNVENTILETFEPIPFADEGDEDA [chain 1 D80R, chain 1 K282D]

Variants of: B1
Assay: GST pull-down, immunoblot quantification; S2 cells; only Flag-CNK2–549 and GST-HYP co-expressed; anti-Flag blot; parent: 1

Row | ratio to parent | Variant
3 | 0.4 | chain 1 AYINIAEWTPDQVTDWIKGLDESMKGYLYEFSKQEIGGRALLNIRPYELENLGMLRIGHQEIVLEAVENLRNFHYHLKNDNLQFMALHVATAAKNLHRELARNHAESTKIDTRILHDITRTIATLKPLVGSLERTPFRKQEMYREYCGNVLKCGLELATIAHRDRFALQPVPAIRQSAERLENLANFVIQDISDPMVLQPASLNLVTLKKRESELGFNIESSYNGIHRVTDIKYNSPAHNSGKIEDGDEIVQINYQTVVGWQHRTVLEHLREALPDVVLTVDKRPKHTKMFGQIYMQPYRLPSKKRNMAARWAAQMPSPRAAFLTLDTEQLATGGTGSAVPDPSKSLSSEKREVLTKANPVSSASDSDSSCSDIPTPTDPKLAAREIRLYYPKPRALLQRRNTICGCEYLSLKNSDLVVPSWHERKPGIGSPTNCDPGSPSIRDKSISFGYGLEMAARPTTCIGIAGDTSTDKARRMFHEARKLKQLTEDSQREFLVDRYKPGVSKVVRFDAKEDYVMKNEKFICNVENTILETFEPIPFADEGDEDA [chain 1 K282D]
4 | 1.03 | chain 1 AYINIAEWTPDQVTDWIKGLDESMKGYLYEFSKQEIGGRALLNIRPYELENLGMLRIGHQEIVLEAVENLRNFHYHLKNRNLQFMALHVATAAKNLHRELARNHAESTKIDTRILHDITRTIATLKPLVGSLERTPFRKQEMYREYCGNVLKCGLELATIAHRDRFALQPVPAIRQSAERLENLANFVIQDISDPMVLQPASLNLVTLKKRESELGFNIESSYNGIHRVTDIKYNSPAHNSGKIEDGDEIVQINYQTVVGWQHRTVLEHLREALPDVVLTVDKRPKHTKMFGQIYMQPYRLPSKKRNMAARWAAQMPSPRAAFLTLDTEQLATGGTGSAVPDPSKSLSSEKREVLTKANPVSSASDSDSSCSDIPTPTDPKLAAREIRLYYPKPRALLQRRNTICGCEYLSLKNSDLVVPSWHERKPGIGSPTNCDPGSPSIRDKSISFGYGLEMAARPTTCIGIAGDTSTDKARRMFHEARKLKQLTEDSQREFLVDRYKPGVSKVVRFDAKEDYVMKNEKFICNVENTILETFEPIPFADEGDEDA [chain 1 D80R, chain 1 K282D]

Variants of: B1
Assay: GST pull-down, immunoblot quantification; S2 cells; GST-HYP + RRKM co-expressed; anti-Flag (CNK) blot; parent: 1
Remark: another data set of the same source

Row | ratio to parent | Variant
5 | 0.08 | chain 1 AYINIAEWTPDQVTDWIKGLDESMKGYLYEFSKQEIGGRALLNIRPYELENLGMLRIGHQEIVLEAVENLRNFHYHLKNDNLQFMALHVATAAKNLHRELARNHAESTKIDTRILHDITRTIATLKPLVGSLERTPFRKQEMYREYCGNVLKCGLELATIAHRDRFALQPVPAIRQSAERLENLANFVIQDISDPMVLQPASLNLVTLKKRESELGFNIESSYNGIHRVTDIKYNSPAHNSGKIEDGDRIRQINYQTVVGWQHRTVLEHLREALPDVVLTVKKRPKHTKMFGQIYMQPYRLPSKKRNMAARWAAQMPSPRAAFLTLDTEQLATGGTGSAVPDPSKSLSSEKREVLTKANPVSSASDSDSSCSDIPTPTDPKLAAREIRLYYPKPRALLQRRNTICGCEYLSLKNSDLVVPSWHERKPGIGSPTNCDPGSPSIRDKSISFGYGLEMAARPTTCIGIAGDTSTDKARRMFHEARKLKQLTEDSQREFLVDRYKPGVSKVVRFDAKEDYVMKNEKFICNVENTILETFEPIPFADEGDEDA [chain 1 E249R, chain 1 V251R]

Variants of: B1
Assay: GST pull-down, immunoblot quantification; S2 cells; only Flag-CNK2–549 and GST-HYP co-expressed; anti-Flag blot; parent: 1
Remark: another data set of the same source

Row | ratio to parent | Variant
6 | 0.05 | chain 1 AYINIAEWTPDQVTDWIKGLDESMKGYLYEFSKQEIGGRALLNIRPYELENLGMLRIGHQEIVLEAVENLRNFHYHLKNDNLQFMALHVATAAKNLHRELARNHAESTKIDTRILHDITRTIATLKPLVGSLERTPFRKQEMYREYCGNVLKCGLELATIAHRDRFALQPVPAIRQSAERLENLANFVIQDISDPMVLQPASLNLVTLKKRESELGFNIESSYNGIHRVTDIKYNSPAHNSGKIEDGDRIRQINYQTVVGWQHRTVLEHLREALPDVVLTVKKRPKHTKMFGQIYMQPYRLPSKKRNMAARWAAQMPSPRAAFLTLDTEQLATGGTGSAVPDPSKSLSSEKREVLTKANPVSSASDSDSSCSDIPTPTDPKLAAREIRLYYPKPRALLQRRNTICGCEYLSLKNSDLVVPSWHERKPGIGSPTNCDPGSPSIRDKSISFGYGLEMAARPTTCIGIAGDTSTDKARRMFHEARKLKQLTEDSQREFLVDRYKPGVSKVVRFDAKEDYVMKNEKFICNVENTILETFEPIPFADEGDEDA [chain 1 E249R, chain 1 V251R]
